What was measured:
rFcRn (rat) [1] = target: rFcRn (rat) (UniProt P13599); test: SPR Biacore, pH 7.4, 1000 nM antibody
Target sequence in this assay (P13599 23-298 limits assumed, form in doubt, chain 1 of 2): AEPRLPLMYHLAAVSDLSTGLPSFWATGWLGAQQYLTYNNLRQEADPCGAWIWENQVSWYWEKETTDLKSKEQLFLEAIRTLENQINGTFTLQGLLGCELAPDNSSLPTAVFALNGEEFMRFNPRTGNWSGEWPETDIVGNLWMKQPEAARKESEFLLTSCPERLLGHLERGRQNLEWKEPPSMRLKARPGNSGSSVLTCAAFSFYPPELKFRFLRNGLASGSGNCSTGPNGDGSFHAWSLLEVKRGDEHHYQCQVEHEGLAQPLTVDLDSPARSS
Target sequence in this assay (P07151 21-119 limits assumed, form in doubt, chain 2 of 2, further chain): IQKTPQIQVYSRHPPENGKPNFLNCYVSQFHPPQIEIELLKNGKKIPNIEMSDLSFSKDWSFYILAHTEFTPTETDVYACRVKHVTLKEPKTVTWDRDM

[2] = target: biotinylated hFcRn (human) (UniProt P55899); test: SPR Biacore, pH 7.4, 1000 nM antibody
rFcRn (rat) [3] = target: rFcRn (rat) (UniProt P13599); test: Biacore SPR, pH 6.0, bivalent fit
Target sequence in this assay (P13599 23-298, form in doubt, chain 1 of 2): as the sequence (P13599 23-298 limits assumed, form in doubt, chain 1 of 2) above
Target sequence in this assay (P07151 21-119, form in doubt, chain 2 of 2, further chain): as the sequence (P07151 21-119 limits assumed, form in doubt, chain 2 of 2, further chain) above

rFcRn (rat) [4] = target: rFcRn (rat) (UniProt P13599); test: SPR Biacore, pH 6.0
Target sequence in this assay (P13599 23-298 limits assumed, form in doubt, chain 1 of 2): as the sequence (P13599 23-298 limits assumed, form in doubt, chain 1 of 2) above
Target sequence in this assay (P07151 21-119 limits assumed, form in doubt, chain 2 of 2, further chain): as the sequence (P07151 21-119 limits assumed, form in doubt, chain 2 of 2, further chain) above

[5] = target: biotinylated hFcRn (human) (UniProt P55899); test: SPR Biacore, pH 6.0
rFcRn (rat) [6] = target: rFcRn (rat) (UniProt P13599); test: SPR Biacore, pH 7.4
Target sequence in this assay (P13599 23-298 limits assumed, form in doubt, chain 1 of 2): as the sequence (P13599 23-298 limits assumed, form in doubt, chain 1 of 2) above
Target sequence in this assay (P07151 21-119 limits assumed, form in doubt, chain 2 of 2, further chain): as the sequence (P07151 21-119 limits assumed, form in doubt, chain 2 of 2, further chain) above

[7] = target: biotinylated hFcRn (human) (UniProt P55899); test: SPR Biacore, pH 7.4

Substance | Steady State RU (rFcRn (rat) [1]) [RU] | Steady State RU [2] [RU] | Kd (rFcRn (rat) [3]) [nM] | Kd (rFcRn (rat) [4]) [nM] | koff (rFcRn (rat) [4]) [s⁻¹] | kon (rFcRn (rat) [4]) [M⁻¹ s⁻¹] | Kd [5] [nM] | koff [5] [s⁻¹] | kon [5] [M⁻¹ s⁻¹] | Steady State RU (rFcRn (rat) [6]) [RU] | Steady State RU [7] [RU]
mAb1 Y436H (antibody) | 16.3 | 3.6 | 131 | 131 |  |  |  |  |  |  | 
mAb1 K288D (antibody) | 21.9 | 3.8 | 149 | 149 |  |  |  |  |  |  | 
mAb1 T256D/N434Y (antibody) |  |  |  | 0.6 | 0.00025 | 413000 | 15.6 | 0.0285 | 1.83e+06 | 71.6 | 37.1
mAb1 T307M (antibody) | 15.3 | 4.4 | 279 | 279 |  |  |  |  |  |  | 
mAb1 T307W/N434F (antibody) |  |  |  | 2.7 | 0.00057 |  | 38.2 |  |  | 65.1 | 30.5
mAb1 T256E/N434F (antibody) |  |  |  | 7.53 | 0.00081 | 108000 | 78.2 | 0.0419 | 536000 | 59 | 23.3
mAb1 M252Y/T307W (antibody) |  |  |  | 5.21 | 0.00109 | 208000 | 118 | 0.057 | 483000 | 66.1 | 15.9
mAb1 M252Y/N434F (antibody) |  |  |  | 0.29 | 0.00012 | 403000 | 18 | 0.023 | 1.27e+06 | 79.3 | 43.8
mAb1 Y436W (antibody) | 10.3 | 3.7 | 1140 | 1140 |  |  |  |  |  |  | 
mAb1 T256E/N434Y (antibody) |  |  |  | 7.71 | 0.00098 | 127000 | 62.6 | 0.0393 | 628000 | 62.2 | 26.8
mAb1 M252Y/T307Q (antibody) |  |  |  | 4.11 | 0.00105 | 255000 | 278 | 0.096 | 345000 | 49.2 | 10.6
mAb1 T307Q/N434Y (antibody) |  |  |  | 4.11 | 0.00048 | 116000 | 32.4 | 0.0202 | 622000 | 63 | 38.4
mAb1 T256D/N434F (antibody) |  |  |  | 1.78 | 0.00039 | 218000 | 29.9 | 0.029 | 968000 | 63 | 29.2

Further substances by falling Kd (rFcRn (rat) [4]), results first:

Steady State RU (rFcRn (rat) [1]) [RU] | Steady State RU [2] [RU] | Kd (rFcRn (rat) [3]) [nM] | Kd (rFcRn (rat) [4]) [nM] | koff (rFcRn (rat) [4]) [s⁻¹] | kon (rFcRn (rat) [4]) [M⁻¹ s⁻¹] | Kd [5] [nM] | koff [5] [s⁻¹] | kon [5] [M⁻¹ s⁻¹] | Steady State RU (rFcRn (rat) [6]) [RU] | Steady State RU [7] [RU] | Substance
27.7 | 5.7 | 6310 | 6310 |  |  |  |  |  |  |  | mAb1 E380C (antibody)
17.4 | 3.6 | 233 | 233 |  |  |  |  |  |  |  | mAb1 Y436N (antibody)
4.3 | 3.5 | 194 | 194 |  |  |  |  |  |  |  | mAb1 N434P (antibody)
20.4 |  | 190 | 190 |  |  |  |  |  |  |  | mAb1 K288N (antibody)
23.1 | 5.2 | 132 | 132 |  |  |  |  |  |  |  | mAb1 T307A (antibody)
21.9 | 4.9 | 131 | 131 |  |  |  |  |  |  |  | mAb1 T307F (antibody)
 |  |  | 8.43 | 0.00273 | 324000 | 128 | 0.0757 | 592000 | 55.1 | 9.8 | mAb1 M252Y/T256E (antibody)
 |  |  | 0.26 | 0.00014 | 540000 | 8.32 | 0.0171 | 2.06e+06 | 67.9 | 54.1 | mAb1 M252Y/N434Y (antibody)
